Laboratory results from publication PMC12903857 (2026).
Non-standard residues stand in square brackets, D forms with d. No end group written: not given here. pS = N[C@@H](COP(=O)(O)O)C(=O)O

T1: B-RAF 365 (10mer) (Homo sapiens, not fully specified)
T1 chain: DRSS[pS]APNVH

T2: 14-3-3σ covalently bound to molecular glue 23 (UniProt P31947 1-248, C38 covalently bound to compound 23 (chloroacetamide warhead))
T2 chain: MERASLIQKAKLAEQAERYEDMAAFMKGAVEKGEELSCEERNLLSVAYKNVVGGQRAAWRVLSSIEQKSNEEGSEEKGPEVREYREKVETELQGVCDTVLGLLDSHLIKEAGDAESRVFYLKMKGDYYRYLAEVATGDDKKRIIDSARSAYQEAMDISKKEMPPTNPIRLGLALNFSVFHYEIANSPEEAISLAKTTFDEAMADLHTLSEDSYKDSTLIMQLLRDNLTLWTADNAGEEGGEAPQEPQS

T3: 14-3-3σ, tagged with a Twin-Strep tag (UniProt P31947 1-248)
T3 chain: T2 chain

B1: 14-3-3σ (natural protein)
chain: T2 chain
B2: acetylated 12-mer B-RAF peptide (peptide)
chain: DRSSSAPNVHIN
modifications: not fully specified (residue 5, N-terminus); also: phosphoserine at 365, position in chain not mapped
B3: FAM-labeled C-RAF259 peptide (10-mer) (peptide)
chain: QRSTSTPNVH
modifications: also: phosphoserine at S259, site in chain not given here, FAM label, site not given here
B4: acetylated 12-mer A-RAF peptide (peptide)
chain: IRSTSTPNVHMV
modifications: not fully specified (residue 5, N-terminus); also: phosphoserine at 214, position in chain not mapped
B5: acetylated 12-mer C-RAF peptide (peptide)
chain: QRSTSTPNVHMV
modifications: not fully specified (residue 5, N-terminus); also: phosphoserine at 259, position in chain not mapped

How the values were obtained:
[1] = target: T1, B-RAF 365 (10mer); assay: FP; DMSO
[2] = target: T1, B-RAF 365 (10mer); assay: FP; 100 uM compound 23
[3] = target: T1, B-RAF 365 (10mer); assay: FP; 100 uM compound 29
[4] = target: T1, B-RAF 365 (10mer); assay: FP; 100 uM compound 32
[5] = target: T1, B-RAF 365 (10mer); assay: FP; 100 uM compound 37
[6] = target: T1, B-RAF 365 (10mer); assay: FP; 100 uM compound 86
[7] = target: B1; assay: FP; 100 uM compound 22
[8] = target: B1; assay: FP; 100 uM compound 23
[9] = target: B1; assay: FP; 100 uM compound 29
[10] = target: B1; assay: FP; 100 uM compound 32
[11] = target: B1; assay: FP; 100 uM compound 37
[12] = target: B1; assay: FP; 100 uM compound 70
[13] = target: B1; assay: FP; 100 uM compound 78
[14] = target: B1; assay: FP; 100 uM compound 79
[15] = target: B1; assay: FP; 100 uM compound 80
[16] = target: B1; assay: FP; 100 uM compound 83
[17] = target: B1; assay: FP; 100 uM compound 86
[18] = target: T2, 14-3-3σ covalently bound to molecular …; assay: SPR; 14-3-3σ covalently bound to molecular glue 23
[19] = target: B1; assay: FP; 100 uM compound 8
[20] = target: B1; assay: FP; 100 uM compound 11
[21] = target: B1; assay: FP; 100 uM compound 12
[22] = target: B1; assay: FP; 100 uM compound 18
[23] = target: B1; assay: FP; 100 uM compound 19
[24] = target: B1; assay: FP; 100 uM compound 21
[25] = target: B1; assay: FP; 100 uM compound 24
[26] = target: B1; assay: FP; 100 uM compound 30
[27] = target: B1; assay: FP; 100 uM compound 31
[28] = target: B1; assay: FP; 100 uM compound 32
[29] = target: B1; assay: FP; 100 uM compound 33
[30] = target: B1; assay: FP; 100 uM compound 36
[31] = target: B1; assay: FP; 100 uM compound 38
[32] = target: B1; assay: FP; 100 uM compound 39
[33] = target: B1; assay: FP; 100 uM compound 40
[34] = target: B1; assay: FP; 100 uM compound 46
[35] = target: B1; assay: FP; DMSO (reference for compound 8)
[36] = target: B1; assay: FP; DMSO (reference for compound 11)
[37] = target: B1; assay: FP; DMSO (reference for compound 70)
[38] = target: B1; assay: FP; DMSO (reference for compound 80)
[39] = target: B1; assay: FP; DMSO (reference for compounds 19, 33)
[40] = target: B1; assay: FP; DMSO (reference for compounds 24, 30, 31)
[41] = target: B1; assay: FP; DMSO (reference for compounds 12, 18, 21, 36, 39, 40)
[42] = target: B1; assay: FP; DMSO
[43] = target: T3, 14-3-3σ, tagged with a Twin-Strep tag; assay: SPR

B1
Kd [1]: 650 nM | Kd [2]: 105 nM | Kd [3]: 140 nM | Kd [4]: 112 nM | Kd [5]: 52 nM | Kd [6]: 155 nM

LQRIRSTSTPNVHMV (also: phosphoserine at S214, site in chain not given here) [15-mer A-RAF peptide]
Kd [7]: 9 nM | Kd [8]: 5 nM | Kd [9]: 30 nM | Kd [10]: 50 nM | Kd [11]: 25 nM | Kd [12]: 110 nM | Kd [13]: 120 nM | Kd [14]: 115 nM | Kd [15]: 1100 nM | Kd [16]: 265 nM | Kd [17]: 140 nM

B2
Kd [18]: 6.3 nM

SQRQRSTSTPNVHMV (also: phosphoserine at S259, site in chain not given here) [15-mer C-RAF peptide]
Kd [11]: 136 nM | Kd [12]: 100 nM | Kd [14]: 135 nM | Kd [15]: 332 nM | Kd [16]: 145 nM | Kd [17]: 140 nM

B3
Kd [19]: 6600 nM | Kd [20]: 400 nM | Kd [21]: 190 nM | Kd [22]: 280 nM | Kd [23]: 213 nM | Kd [24]: 480 nM | Kd [25]: 110 nM | Kd [26]: 780 nM | Kd [27]: 1420 nM | Kd [28]: 140 nM | Kd [29]: 230 nM | Kd [30]: 240 nM | Kd [31]: 218 nM | Kd [32]: 420 nM | Kd [33]: 320 nM | Kd [34]: 170 nM | Kd [15]: 420 nM | Kd [16]: 102 nM | Kd [35]: 6700 nM | Kd [36]: 1320 nM | Kd [37]: 5510 nM | Kd [38]: 4600 nM | Kd [39]: 3050 nM | Kd [40]: 2280 nM | Kd [41]: 4200 nM

GQRDRSSSAPNVHIN (also: phosphoserine at S365, site in chain not given here) [15-mer B-RAF peptide]
Kd [42]: 2240 nM | Kd [9]: 14 nM | Kd [10]: 245 nM | Kd [11]: 25 nM | Kd [12]: 70 nM | Kd [13]: 55 nM | Kd [14]: 60 nM | Kd [15]: 220 nM | Kd [16]: 94 nM | Kd [17]: 95 nM

B4
Kd [43]: 2000 nM | Kd [18]: 1.7 nM

B5
Kd [18]: 1.2 nM
